In this test the target is FtsZ from Synechococcus 7942 (Synechococcus 7942). Put plainly: MST.

As for Microcystin-LR (peptide), the dissociation constant Kd (in general, the constant that tells how readily two partners part at equilibrium) worked out at 1120 nM.
